Patent publication US20190367612A1 (Daiichi Sankyo, published 2019)

T1: amino-terminal peptide of cynomolgus monkey GPRC5D …(Biotin)-NH2 (cynomolgus monkey, C-terminal lysine carrying biotin, C-terminal amide)
T1 construct: also called amino-terminal peptide of biotinylated cynomolgus monkey GPRC5D
T1 peptide: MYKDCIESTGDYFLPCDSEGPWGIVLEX

T2: human GPRC5D amino-terminal peptide MYKDCIESTGDYFLLCDAEGPWGIILE-K(Biotin)-NH2, having an intramolecular … (human, C-terminal lysine carrying biotin, C-terminal amide; intramolecularly formed disulfide bond)
T2 construct: Peptide Institute synthetic peptide; also called amino-terminal peptide of biotinylated human GPRC5D (disulfide bond present)
T2 peptide: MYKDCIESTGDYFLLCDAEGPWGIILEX

T3: human GPRC5D amino-terminal peptide …(Biotin)-NH2, lacking an intramolecular disulfide bond (human, biotinylated carboxy terminus, C-terminal amide; no intramolecularly formed disulfide bond)
T3 construct: Sigma-Aldrich synthetic peptide; also called amino-terminal peptide of human GPRC5D (disulfide bond absent)
T3 peptide: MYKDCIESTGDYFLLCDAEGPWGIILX

B1: IgG form of the human antibody C3015 (antibody, V domains shown)
VH: EVQLVESGGGVVQPGRSLRLSCAASGFTFRNYAMSWVRQAPGKGLEWVSGISGTGGSTYYADSVKGRFTISRDNSKDTLYLQLNSLRAEDTAVYYCAKSRSMSINYGMDVWGQGTTVTVSS
VL: SYELTQPPSVSVSPGQTVSITCSGDNLGDRYASWYQQKPGQSPVQVIYQDTKRPSGIPERFSGSNSGNTATLTISGTQAMDEADYYCQAWDSNTVVFGGGTKLTVLG
notes: Human IgG1; also called C3015 IgG form; full-length IgG form containing C3015
B2: rat anti-GPRC5D antibody 2B1 (antibody, V domains shown)
VH: QVTLKESGPGILQPSQTLSLTCTFSGFSLNTYDMGVGWIRQPSGKGLEWLANIWWDDDKYYNPSLRNRLTISKDTSNNQAFLKITNVDTADTATYYCARIETVRVSRKGFAHWGQGTLVTVSS
VL: ETVMTQSPTSMSTSIGERVTLNCKASQSVGINVDWYQQTPGQSPKLLIYGASNRHTGVPDRFTGSGFGRDFTLTISNVEAEDLAVYYCLQHGSIPPTFGGGTKLELK
notes: Rat IgG2b, kappa chain

Assays:
[1] = biological target: T4, human GPRC5D (human, UniProt Q9NZD1 1-345); test: flow cytometry on KHM-1B cells (human GPRC5D), PE anti-human IgG Fc detection, rMFI = MFI minus isotype control
T4 construct: whole, on cells; also called hGPRC5D; G-protein coupled receptor family C group 5 member D
Procedure: Human multiple myeloma cell line KHM-1B cells expressing GPRC5D were adjusted to a concentration of 2×10⁶ cells/mL with PBS containing 5% FBS, inoculated in an amount of 100 μL/well to a 96-well U-bottomed microplate, and centrifuged to remove the supernatant. The culture supernatant of each human anti-GPRC5D antibody (full-length IgG form containing C2037, C3048, C3015, or C3022) obtained in Example 10)-5 or Human IgG isotype control antibody (Calbiochem/Merck Millipore Corp.) adjusted to 14 ng/mL to 30 μg/mL was added thereto in an amount of 100 μL/well, and the plate was left standing at 4° C. for 1 hour. The cells were washed twice with PBS containing 5% FBS. Then, R-Phycoerythrin AffiniPure F(ab′)2 Fragment Goat Anti-Human IgG, Fcγ Fragment Specific (Jackson ImmunoResearch Laboratories, Inc.) diluted 100-fold with PBS containing 5% FBS was added thereto in an amount of 100 μL/well, and the plate was left standing at 4° C. for 1 hour. The cells were washed twice with PBS containing 5% FBS and then resuspended in PBS containing 5% FBS, followed by detection using a flow cytometer (FACSCanto™ II; Becton, Dickinson and Company). The data was analyzed using Flowjo (Tree Star, Inc.). The PE fluorescence intensity of the cell fraction was plotted to a histogram, and the mean fluorescence intensity (MFI) was calculated. The MFI value of the control antibody was subtracted from the MFI value of the GPRC5D antibody to calculate a relative value of MFI (rMFI).

[2] = biological target: T1, amino-terminal peptide of cynomolgus …; test: ELISA, biotinylated peptide on NeutrAvidin
Procedure: (§1) NeutrAvidin diluted to 1 μg/mL with PBS was added in an amount of 50 μL/well to 96-well Maxi-sorp plate, and the plate was left standing overnight at 4° C. for immobilization. After washing three times with an ELISA buffer, the amino-terminal peptide of the biotinylated human or cynomolgus monkey GPRC5D (used in Example 10)-1) diluted to 1 μg/mL with PBS was added thereto, and the plate was shaken at room temperature for 1 hour. After washing three times with an ELISA buffer, the plate was blocked with Blocker Casein and washed three times with an ELISA buffer. Then, the culture solution of the IgG-expressing FreeStyle 293F cells was added to the plate and reacted at room temperature for 2 hours. After washing three times with an ELISA buffer, a horseradish peroxidase (HRP)-labeled anti-human Fab antibody (Jackson ImmunoResearch Laboratories, Inc.) diluted 2500-fold with ELISA buffer was added thereto in an amount of 50 μL/well and reacted at room temperature for 1 hour. After washing five times with an ELISA buffer, SuperSignal Pico ELISA Chemiluminescent substrate was added. After 10 minutes, the chemiluminescence was measured using a plate reader.

[3] = biological target: T2, human GPRC5D amino-terminal peptide …; test: ELISA, chemiluminescence: biotinylated amino-terminal peptide of human GPRC5D on NeutrAvidin, culture supernatant of IgG-expressing cells (one concentration, not given), HRP anti-human Fab detection
Procedure: as §1

[4] = biological target: T4, human GPRC5D; test: flow cytometry, KMS-34 cells
[5] = biological target: T2, human GPRC5D amino-terminal peptide …; test: ELISA, immobilised biotinylated peptide with disulfide bond
Source text: (§2) Epitopes bound by the obtained rat anti-GPRC5D antibodies (2A4, 2B1, and 7B4) were identified using a human GPRC5D amino-terminal peptide […](Biotin)-NH₂ (Sigma-Aldrich Corp.) (SEQ ID NO: 1 of the Sequence Listing; FIG. 2) having a biotinylated carboxy-terminal peptide and lacking an intramolecularly formed disulfide bond, and a human GPRC5D amino-terminal peptide […]-K(Biotin)-NH₂ (Peptide Institute, Inc.) (SEQ ID NO: 2 of the Sequence Listing; FIG. 3) having a lysine-containing biotinylated carboxy terminus and having an intramolecularly formed disulfide bond. Each peptide diluted with PBS was added to Nunc Immobilizer (Thermo Fisher Scientific Inc.), and the plate was left standing at room temperature for 1 hour. After washing three times with PBST, […] containing 1% BSA was added thereto, and the plate was left standing at room temperature for 1 hour. After washing three times with PBST, each rat anti-GPRC5D antibody (2A4, 2B1, and 7B4) prepared in Example 1)-7 and diluted to 0.1 ng/mL to 1 μg/mL with PBS was added thereto, and the plate was left standing at room temperature for 1 hour. […] After washing three times with PBST, SuperSignal™ ELISA Pico Chemiluminescent Substrate (Thermo Fisher Scientific Inc.) was added thereto, and the luminescence was measured using a plate reader (ENVISION; PerkinElmer, Inc.).

[6] = biological target: T3, human GPRC5D amino-terminal peptide …; test: ELISA, immobilised biotinylated peptide without disulfide bond
Source text: as §2

[7] = biological target: T4, human GPRC5D; test: flow cytometry, KHM-1B cells
Procedure: Human multiple myeloma cell line KHM-1B cells (JCRB Cell Bank) expressing GPRC5D were adjusted to a concentration of 5×10⁶ cells/mL with PBS containing 5% FBS, inoculated in an amount of 100 μL/well to a 96-well U-bottomed microplate, and centrifuged to remove a supernatant. Each rat anti-GPRC5D antibody (2A4, 2B1, and 7B4) adjusted to 0.32 ng/mL to 10 μg/mL in Example 1)-7 was added thereto in an amount of 100 μL/well, and the plate was left standing at 4° C. for 1 hour. The cells were washed twice with PBS containing 5% FBS. Then, PE Goat Anti-Rat Ab (Becton, Dickinson and Company) diluted 100-fold with PBS containing 5% FBS was added thereto at a concentration of 100 μL/well, and the plate was left standing at 4° C. for 1 hour. The cells were washed twice with PBS containing 5% FBS and then resuspended in PBS containing 5% FBS, followed by detection using a flow cytometer (FACSCanto™ II; Becton, Dickinson and Company). The data was analyzed using Flowjo (Tree Star, Inc.). The PE fluorescence intensity of the cell fraction was plotted to a histogram, and the mean fluorescence intensity (MFI) was calculated.

Binder | binding result [1] | binding result [2] | binding result [3] | Kd [4] [nM] | MFI (max) [4] | binding result [5] | binding result [6] | Kd [7] [nM] | MFI (max) [7]
B1 | binds | binds | binds | – | – | – | – | – | –
B2 | – | – | – | 12.7 | 3160 | binds | binds | 14.8 | 2390
